According to US20200317768A1 (published 2020):

T1: human FcγRIIb constitutively expressed on MDCK cells (human, UniProt P31994 43-310)
T1 sequence (looked up): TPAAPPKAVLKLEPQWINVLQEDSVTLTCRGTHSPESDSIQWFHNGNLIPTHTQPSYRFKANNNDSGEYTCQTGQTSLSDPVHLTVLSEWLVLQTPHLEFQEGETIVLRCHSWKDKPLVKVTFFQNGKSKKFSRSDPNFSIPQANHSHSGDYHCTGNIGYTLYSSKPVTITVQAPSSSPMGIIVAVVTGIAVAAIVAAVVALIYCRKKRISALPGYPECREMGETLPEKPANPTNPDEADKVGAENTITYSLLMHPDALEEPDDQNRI

T2: soluble mouse FcγRII, His-tagged (mouse, UniProt P08101 30-210, limits assumed)
T2 construct: Captured on the chip by an anti-His antibody
T2 sequence (looked up): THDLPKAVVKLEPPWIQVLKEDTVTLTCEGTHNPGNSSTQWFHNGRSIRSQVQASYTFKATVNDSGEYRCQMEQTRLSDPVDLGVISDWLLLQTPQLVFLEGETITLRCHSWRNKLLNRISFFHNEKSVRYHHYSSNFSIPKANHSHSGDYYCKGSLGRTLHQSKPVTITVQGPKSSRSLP

B1: M103205H795-P1375m/M103202L889-SK1 (antibody, human IgG1, kappa)
heavy: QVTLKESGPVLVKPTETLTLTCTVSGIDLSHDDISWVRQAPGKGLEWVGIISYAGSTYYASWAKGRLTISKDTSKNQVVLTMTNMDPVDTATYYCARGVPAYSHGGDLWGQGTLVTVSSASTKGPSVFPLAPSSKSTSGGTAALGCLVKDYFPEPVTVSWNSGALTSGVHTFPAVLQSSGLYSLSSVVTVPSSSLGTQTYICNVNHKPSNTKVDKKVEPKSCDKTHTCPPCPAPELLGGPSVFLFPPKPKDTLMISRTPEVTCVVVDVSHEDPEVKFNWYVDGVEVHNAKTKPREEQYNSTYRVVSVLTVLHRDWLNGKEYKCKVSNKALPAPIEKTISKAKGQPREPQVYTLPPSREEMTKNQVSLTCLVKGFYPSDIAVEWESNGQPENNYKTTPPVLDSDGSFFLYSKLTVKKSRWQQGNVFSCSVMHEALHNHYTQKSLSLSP
light: DIVMTQSPATLSLSPGERATLSCTSSQSVYHANWLSWFQQKPGQPPKLLIYWASTLAYGVPSRFSGSGSGTDFTLTISSLQPEDAATYYCAGGYGGGRYAFGQGTKVEIKRTVAAPSVFIFPPSDEQLKSGTASVVCLLNNFYPREAKVQWKVDNALQSGNSQESVTEQDSKDSTYSLSSTLTLSKADYEKHKVYACEVTHQGLSSPVTKSFNRGEC
notes: also called MS1032LO06-P1375m
B2: M103205H795-P1485m/M103202L889-SK1 (antibody, human IgG1, kappa)
heavy: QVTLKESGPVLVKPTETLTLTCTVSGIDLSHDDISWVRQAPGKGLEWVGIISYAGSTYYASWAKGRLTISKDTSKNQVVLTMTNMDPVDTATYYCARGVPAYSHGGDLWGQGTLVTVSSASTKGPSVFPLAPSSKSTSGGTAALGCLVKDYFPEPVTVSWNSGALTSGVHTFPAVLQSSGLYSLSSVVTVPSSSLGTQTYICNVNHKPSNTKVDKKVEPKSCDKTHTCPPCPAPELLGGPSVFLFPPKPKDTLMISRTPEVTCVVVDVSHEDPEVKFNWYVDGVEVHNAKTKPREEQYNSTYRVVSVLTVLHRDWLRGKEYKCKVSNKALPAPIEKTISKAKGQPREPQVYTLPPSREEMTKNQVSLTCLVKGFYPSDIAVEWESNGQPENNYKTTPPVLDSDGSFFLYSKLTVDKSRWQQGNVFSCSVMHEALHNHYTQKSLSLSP
light: B1 light
B3: M103205H795-P1523m/M103202L889-SK1 (antibody, human IgG1, kappa)
heavy: not shown
light: B1 light
B4: M103205H795-P1497m/M103202L889-SK1 (antibody, human IgG1, kappa)
heavy: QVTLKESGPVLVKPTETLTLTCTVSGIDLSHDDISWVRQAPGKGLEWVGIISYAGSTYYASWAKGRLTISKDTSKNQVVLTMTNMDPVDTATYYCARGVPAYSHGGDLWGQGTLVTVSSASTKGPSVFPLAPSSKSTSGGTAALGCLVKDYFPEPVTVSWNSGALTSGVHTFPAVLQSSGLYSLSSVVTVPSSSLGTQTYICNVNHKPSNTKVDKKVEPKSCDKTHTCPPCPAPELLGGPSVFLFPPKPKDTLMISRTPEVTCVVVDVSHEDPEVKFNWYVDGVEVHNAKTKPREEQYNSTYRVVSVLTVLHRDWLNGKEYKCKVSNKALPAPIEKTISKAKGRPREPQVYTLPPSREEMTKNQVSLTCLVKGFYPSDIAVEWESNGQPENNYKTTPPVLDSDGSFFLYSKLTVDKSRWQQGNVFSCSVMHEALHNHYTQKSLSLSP
light: B1 light
B5: M103205H795-P1496m/M103202L889-SK1 (antibody, human IgG1, kappa)
heavy: not shown
light: B1 light
B6: M103205H795-P1527m/M103202L889-SK1 (antibody, human IgG1, kappa)
heavy: not shown
light: B1 light
B7: M103205H795-P1533m/M103202L889-SK1 (antibody, human IgG1, kappa)
heavy: not shown
light: B1 light
B8: M103205H795-P1526m/M103202L889-SK1 (antibody, human IgG1, kappa)
heavy: not shown
light: B1 light
B9: M103205H795-P1491m/M103202L889-SK1 (antibody, human IgG1, kappa)
heavy: not shown
light: B1 light
B10: M103205H795-P1531m/M103202L889-SK1 (antibody, human IgG1, kappa)
heavy: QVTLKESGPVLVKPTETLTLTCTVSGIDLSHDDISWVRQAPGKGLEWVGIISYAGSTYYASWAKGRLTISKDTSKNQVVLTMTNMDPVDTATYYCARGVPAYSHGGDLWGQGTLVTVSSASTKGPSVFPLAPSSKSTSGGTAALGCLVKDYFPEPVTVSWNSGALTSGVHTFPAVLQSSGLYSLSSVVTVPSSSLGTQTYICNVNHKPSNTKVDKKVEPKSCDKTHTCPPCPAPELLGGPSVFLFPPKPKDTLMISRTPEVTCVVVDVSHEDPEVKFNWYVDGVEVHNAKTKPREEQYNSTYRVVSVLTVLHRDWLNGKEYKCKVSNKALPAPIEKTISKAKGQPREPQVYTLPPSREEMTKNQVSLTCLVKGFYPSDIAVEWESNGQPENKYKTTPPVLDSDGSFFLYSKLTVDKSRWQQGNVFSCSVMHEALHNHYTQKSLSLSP
light: B1 light
B11: M103205H795-P1532m/M103202L889-SK1 (antibody, human IgG1, kappa)
heavy: not shown
light: B1 light
B12: M103205H795-P1494m/M103202L889-SK1 (antibody, human IgG1, kappa)
heavy: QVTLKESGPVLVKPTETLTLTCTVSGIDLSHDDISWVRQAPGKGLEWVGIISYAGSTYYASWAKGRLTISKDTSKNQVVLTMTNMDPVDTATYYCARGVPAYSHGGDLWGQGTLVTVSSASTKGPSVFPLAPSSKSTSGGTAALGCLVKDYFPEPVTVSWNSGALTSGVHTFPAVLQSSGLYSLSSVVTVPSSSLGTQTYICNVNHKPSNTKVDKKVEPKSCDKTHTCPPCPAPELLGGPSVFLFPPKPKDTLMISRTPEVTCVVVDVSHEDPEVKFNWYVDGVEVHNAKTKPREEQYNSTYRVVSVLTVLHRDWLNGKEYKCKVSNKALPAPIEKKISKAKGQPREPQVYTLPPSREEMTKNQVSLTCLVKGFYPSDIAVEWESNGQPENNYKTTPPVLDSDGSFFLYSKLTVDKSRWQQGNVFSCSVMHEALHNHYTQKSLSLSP
light: B1 light
B13: M103205H795-P1383m/M103202L889-SK1 (antibody, human IgG1, kappa)
heavy: QVTLKESGPVLVKPTETLTLTCTVSGIDLSHDDISWVRQAPGKGLEWVGIISYAGSTYYASWAKGRLTISKDTSKNQVVLTMTNMDPVDTATYYCARGVPAYSHGGDLWGQGTLVTVSSASTKGPSVFPLAPSSKSTSGGTAALGCLVKDYFPEPVTVSWNSGALTSGVHTFPAVLQSSGLYSLSSVVTVPSSSLGTQTYICNVNHKPSNTKVDKKVEPKSCDKTHTCPPCPAPELLGGPSVFLFPPKPKDTLMISRTPEVTCVVVDVSHEDPEVKFNWYVDGVEVHNAKTKPREEQYNSTYRVVSVLTVLHRDWLNGKEYKCKVSNKALPAPIEKTISKAKGQPREPQVYTLPPSREEMTKNQVSLTCLVKGFYPSDIAVEWESNGQPENNYKTTPPVLDRDGSFFLYSKLTVKKSRWQQGNVFSCSVMHEALHNHYTQKSLSLSP
light: B1 light
notes: also called MS1032LO06-P1383m
B14: M103205H795-P1501m/M103202L889-SK1 (antibody, human IgG1, kappa)
heavy: not shown
light: B1 light
B15: M103205H795-P1493m/M103202L889-SK1 (antibody, human IgG1, kappa)
heavy: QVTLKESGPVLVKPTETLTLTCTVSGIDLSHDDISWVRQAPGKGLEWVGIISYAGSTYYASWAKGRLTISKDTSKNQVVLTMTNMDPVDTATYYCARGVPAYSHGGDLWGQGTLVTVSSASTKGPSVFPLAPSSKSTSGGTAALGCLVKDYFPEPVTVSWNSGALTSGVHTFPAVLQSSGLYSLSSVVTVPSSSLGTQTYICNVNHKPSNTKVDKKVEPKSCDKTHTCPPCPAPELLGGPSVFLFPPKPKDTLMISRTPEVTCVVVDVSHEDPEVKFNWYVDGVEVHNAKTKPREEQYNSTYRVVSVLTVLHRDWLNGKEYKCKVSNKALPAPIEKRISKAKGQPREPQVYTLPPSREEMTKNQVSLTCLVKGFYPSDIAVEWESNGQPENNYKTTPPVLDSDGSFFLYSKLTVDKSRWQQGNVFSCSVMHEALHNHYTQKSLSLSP
light: B1 light
B16: M103205H795-P1524m/M103202L889-SK1 (antibody, human IgG1, kappa)
heavy: not shown
light: B1 light
B17: M103205H795-P1487m/M103202L889-SK1 (antibody, human IgG1, kappa)
heavy: not shown
light: B1 light
B18: M103205H795-P1489m/M103202L889-SK1 (antibody, human IgG1, kappa)
heavy: not shown
light: B1 light
B19: M103205H795-P1492m/M103202L889-SK1 (antibody, human IgG1, kappa)
heavy: not shown
light: B1 light
B20: M103205H795-P1525m/M103202L889-SK1 (antibody, human IgG1, kappa)
heavy: not shown
light: B1 light
B21: M103205H795-P1486m/M103202L889-SK1 (antibody, human IgG1, kappa)
heavy: not shown
light: B1 light
B22: M103205H795-P1529m/M103202L889-SK1 (antibody, human IgG1, kappa)
heavy: not shown
light: B1 light
B23: M103205H795-P1498m/M103202L889-SK1 (antibody, human IgG1, kappa)
heavy: not shown
light: B1 light
B24: M103205H795-P1528m/M103202L889-SK1 (antibody, human IgG1, kappa)
heavy: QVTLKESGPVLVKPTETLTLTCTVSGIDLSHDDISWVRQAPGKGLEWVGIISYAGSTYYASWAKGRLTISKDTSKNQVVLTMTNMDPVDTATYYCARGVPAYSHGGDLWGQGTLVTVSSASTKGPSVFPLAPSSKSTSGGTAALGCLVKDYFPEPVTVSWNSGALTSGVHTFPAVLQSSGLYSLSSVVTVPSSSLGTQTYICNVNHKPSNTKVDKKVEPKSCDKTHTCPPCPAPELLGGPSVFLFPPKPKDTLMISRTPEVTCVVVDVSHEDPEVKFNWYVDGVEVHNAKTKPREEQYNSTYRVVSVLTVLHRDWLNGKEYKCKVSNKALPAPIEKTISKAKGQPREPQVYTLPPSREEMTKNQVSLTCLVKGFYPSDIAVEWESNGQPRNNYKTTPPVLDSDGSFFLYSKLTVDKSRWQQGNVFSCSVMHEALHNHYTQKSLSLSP
light: B1 light
B25: M103205H795-P1495m/M103202L889-SK1 (antibody, human IgG1, kappa)
heavy: not shown
light: B1 light
B26: M103205H795-P1484m/M103202L889-SK1 (antibody, human IgG1, kappa)
heavy: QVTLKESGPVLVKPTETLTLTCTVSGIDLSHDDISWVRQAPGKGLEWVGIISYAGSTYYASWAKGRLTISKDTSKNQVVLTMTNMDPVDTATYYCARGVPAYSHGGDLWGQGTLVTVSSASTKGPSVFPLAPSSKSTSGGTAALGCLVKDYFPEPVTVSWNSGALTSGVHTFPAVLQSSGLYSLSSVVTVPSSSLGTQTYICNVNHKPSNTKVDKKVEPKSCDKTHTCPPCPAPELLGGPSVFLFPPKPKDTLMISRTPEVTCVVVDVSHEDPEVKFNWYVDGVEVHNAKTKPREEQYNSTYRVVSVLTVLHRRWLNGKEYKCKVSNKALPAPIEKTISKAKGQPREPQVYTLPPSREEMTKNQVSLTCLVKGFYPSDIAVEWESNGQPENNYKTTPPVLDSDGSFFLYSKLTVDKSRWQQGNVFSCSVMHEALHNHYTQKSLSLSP
light: B1 light
B27: M103205H795-P1499m/M103202L889-SK1 (antibody, human IgG1, kappa)
heavy: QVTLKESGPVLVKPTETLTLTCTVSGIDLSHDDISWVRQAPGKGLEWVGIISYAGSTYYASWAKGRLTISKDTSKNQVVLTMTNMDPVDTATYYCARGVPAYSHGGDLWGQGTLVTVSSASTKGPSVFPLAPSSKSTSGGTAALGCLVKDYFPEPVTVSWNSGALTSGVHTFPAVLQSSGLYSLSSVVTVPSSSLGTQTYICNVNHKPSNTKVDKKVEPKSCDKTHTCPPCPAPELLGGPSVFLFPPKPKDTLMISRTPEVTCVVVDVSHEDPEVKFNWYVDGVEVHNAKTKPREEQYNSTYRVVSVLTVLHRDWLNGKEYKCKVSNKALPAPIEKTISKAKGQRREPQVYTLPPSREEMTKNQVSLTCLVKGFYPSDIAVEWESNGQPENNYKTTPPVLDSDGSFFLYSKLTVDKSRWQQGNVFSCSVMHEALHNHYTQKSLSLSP
light: B1 light
notes: also called MS1032LO06-P1499m
B28: M103205H795-P1490m/M103202L889-SK1 (antibody, human IgG1, kappa)
heavy: not shown
light: B1 light
B29: M103205H795-P1378m/M103202L889-SK1 (antibody, human IgG1, kappa)
heavy: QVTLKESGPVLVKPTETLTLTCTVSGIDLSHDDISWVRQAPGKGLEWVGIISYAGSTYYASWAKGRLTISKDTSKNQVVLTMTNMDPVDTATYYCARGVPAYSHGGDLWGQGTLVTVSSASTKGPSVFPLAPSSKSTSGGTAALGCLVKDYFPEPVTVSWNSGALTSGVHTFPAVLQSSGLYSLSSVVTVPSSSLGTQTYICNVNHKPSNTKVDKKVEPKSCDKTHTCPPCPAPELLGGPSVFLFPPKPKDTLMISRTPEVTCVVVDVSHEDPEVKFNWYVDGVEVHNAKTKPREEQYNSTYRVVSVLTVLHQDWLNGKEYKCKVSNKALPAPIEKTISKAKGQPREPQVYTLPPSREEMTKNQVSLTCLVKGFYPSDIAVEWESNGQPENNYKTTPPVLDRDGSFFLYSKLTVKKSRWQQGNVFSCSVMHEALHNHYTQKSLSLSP
light: B1 light
notes: also called MS1032LO06-P1378m
B30: M103205H795-P1500m/M103202L889-SK1 (antibody, human IgG1, kappa)
heavy: not shown
light: B1 light
B31: M103205H795-P1522m/M103202L889-SK1 (antibody, human IgG1, kappa)
heavy: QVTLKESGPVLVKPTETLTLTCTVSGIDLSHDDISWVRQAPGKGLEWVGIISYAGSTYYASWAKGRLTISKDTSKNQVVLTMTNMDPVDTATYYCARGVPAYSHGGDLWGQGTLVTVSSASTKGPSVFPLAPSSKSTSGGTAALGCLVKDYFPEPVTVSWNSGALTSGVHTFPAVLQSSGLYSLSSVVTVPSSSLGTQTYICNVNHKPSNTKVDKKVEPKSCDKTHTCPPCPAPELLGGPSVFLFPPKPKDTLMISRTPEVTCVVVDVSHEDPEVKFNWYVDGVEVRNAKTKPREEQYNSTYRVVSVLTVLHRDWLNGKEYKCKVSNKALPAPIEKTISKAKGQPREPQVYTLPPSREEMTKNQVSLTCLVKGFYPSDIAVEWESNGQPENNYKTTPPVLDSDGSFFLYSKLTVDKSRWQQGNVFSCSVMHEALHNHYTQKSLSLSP
light: B1 light
B32: M103205H795-P1530m/M103202L889-SK1 (antibody, human IgG1, kappa)
heavy: not shown
light: B1 light
B33: M103205H795-P1488m/M103202L889-SK1 (antibody, human IgG1, kappa)
heavy: not shown
light: B1 light

molecular target: T1, human FcγRIIb constitutively expressed …; assay: cell-based or functional assay

| celluar uptake | Binder |
| --- | --- |
| 3.43 relative to SG1 (=1.00) | B1 |
| 1.88 relative to SG1 (=1.00) | B2 |
| 1.91 relative to SG1 (=1.00) | B3 |
| 1.38 relative to SG1 (=1.00) | B4 |
| 1.69 relative to SG1 (=1.00) | B5 |
| 0.92 relative to SG1 (=1.00) | B6 |
| 3.52 relative to SG1 (=1.00) | B7 |
| 1.2 relative to SG1 (=1.00) | B8 |
| 1.37 relative to SG1 (=1.00) | B9 |
| 2.35 relative to SG1 (=1.00) | B10 |
| 4.16 relative to SG1 (=1.00) | B11 |
| 1.12 relative to SG1 (=1.00) | B12 |
| 5.68 relative to SG1 (=1.00) | B13 |
| 2.4 relative to SG1 (=1.00) | B14 |
| 0.99 relative to SG1 (=1.00) | B15 |
| 3.66 relative to SG1 (=1.00) | B16 |
| 1.23 relative to SG1 (=1.00) | B17 |

| celluar uptake | Binder |
| --- | --- |
| 1.68 relative to SG1 (=1.00) | B18 |
| 1.13 relative to SG1 (=1.00) | B19 |
| 3.55 relative to SG1 (=1.00) | B20 |
| 1.52 relative to SG1 (=1.00) | B21 |
| 2.86 relative to SG1 (=1.00) | B22 |
| 1.56 relative to SG1 (=1.00) | B23 |
| 3.02 relative to SG1 (=1.00) | B24 |
| 1.76 relative to SG1 (=1.00) | B25 |
| 0 relative to SG1 (=1.00) | B26 |
| 3.61 relative to SG1 (=1.00) | B27 |
| 1.33 relative to SG1 (=1.00) | B28 |
| 3.86 relative to SG1 (=1.00) | B29 |
| 1.82 relative to SG1 (=1.00) | B30 |
| 2.13 relative to SG1 (=1.00) | B31 |
| 3.12 relative to SG1 (=1.00) | B32 |
| 1.45 relative to SG1 (=1.00) | B33 |

molecular target: T2, soluble mouse FcγRII, His-tagged; assay: SPR, mouse FcgRII-His captured, antigen-antibody complex injected, pH7.4, 25C
Method: Regarding the produced Fc region variant-containing antibodies, binding assays between soluble mouse FcγRII and antigen-antibody complexes were performed using BIACORE® T200 (GE Healthcare). Soluble mouse FcγRII was produced in the form of a His-tagged molecule by a method known to those skilled in the art. An appropriate amount of an anti-His antibody was fixed onto Sensor chip CM5 (GE Healthcare) by the amine coupling method using a His capture kit (GE Healthcare) to capture mouse FcγRII. Next, an antibody-antigen complex and a running buffer (as a reference solution) were injected, and interaction was allowed to take place with the mouse FcγRII captured onto the sensor chip. 20 mM N-(2-Acetamido)-2-aminoethanesulfonic acid, 150 mM NaCl, 1.2 mM CaCl₂, and 0.05% (w/v) TWEEN, 20 at pH7.4 was used as the running buffer, and the respective buffer was also used to dilute the soluble mouse FcγRII. To regenerate the sensor chip, 10 mM glycine-HCl at pH1.5 was used. All measurements were carried out at 25° C. […] To calculate the parameters, the BIACORE® T100 Evaluation Software (GE Healthcare) was used.

| biacore IC binding | Binder |
| --- | --- |
| 1.21 relative to SG1 (=1.00) | B1 |
| 1.29 relative to SG1 (=1.00) | B2 |
| 1.19 relative to SG1 (=1.00) | B3 |
| 1.49 relative to SG1 (=1.00) | B4 |
| 1.28 relative to SG1 (=1.00) | B5 |
| 0.98 relative to SG1 (=1.00) | B6 |
| 1.18 relative to SG1 (=1.00) | B7 |
| 1.04 relative to SG1 (=1.00) | B8 |
| 1.05 relative to SG1 (=1.00) | B9 |
| 1.01 relative to SG1 (=1.00) | B10 |
| 1.23 relative to SG1 (=1.00) | B11 |
| 1.14 relative to SG1 (=1.00) | B12 |
| 1.41 relative to SG1 (=1.00) | B13 |
| 1.82 relative to SG1 (=1.00) | B14 |
| 1.1 relative to SG1 (=1.00) | B15 |
| 1.4 relative to SG1 (=1.00) | B16 |
| 1.46 relative to SG1 (=1.00) | B17 |

| biacore IC binding | Binder |
| --- | --- |
| 1.24 relative to SG1 (=1.00) | B18 |
| 0.88 relative to SG1 (=1.00) | B19 |
| 1.31 relative to SG1 (=1.00) | B20 |
| 1.2 relative to SG1 (=1.00) | B21 |
| 1.08 relative to SG1 (=1.00) | B22 |
| 1.38 relative to SG1 (=1.00) | B23 |
| 1.12 relative to SG1 (=1.00) | B24 |
| 1.3 relative to SG1 (=1.00) | B25 |
| 1.33 relative to SG1 (=1.00) | B26 |
| 1.98 relative to SG1 (=1.00) | B27 |
| 1.28 relative to SG1 (=1.00) | B28 |
| 1.23 relative to SG1 (=1.00) | B29 |
| 1.32 relative to SG1 (=1.00) | B30 |
| 1.24 relative to SG1 (=1.00) | B31 |
| 1.09 relative to SG1 (=1.00) | B32 |
| 1.43 relative to SG1 (=1.00) | B33 |
